Results from the supplement of paper PMC11875167.

Test: observed amide hydrogen exchange rate constant kobs (stretched exponential fit, FD-normalized) (s^-1); higher = faster H/D exchange (less protection)
Conditions: pH 3 (pH read); temperature: 20 °C; D2O: 88%
How it was run: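 Jurkat tryptic peptides (LysC/trypsin, carbamidomethylated cysteines) were labeled in 88% D2O, pHread 3, 20 °C, quenched with 0.23% formic acid at 13 times from 18 to 93,600 s, in processing triplicates. MS1 uptake (Q-Exactive HF, HDExaminer, no back-exchange correction) was normalized to full-deuteration controls (24 h, 37 °C). Curves were fitted to a stretched single exponential with β = 0.8. The observed exchange rate constant kobs is the fitted rate.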

Substance	observed amide hydrogen exchange rate constant kobs
TFNTSTGGLLLPSDTK	0.00131
EESGKPGAHVTVK	0.00233
HLEINPDHPIVETLR	0.00133
EAFSLFDK	0.0018
LFFLQVK	0.00042
ANTFVAELK	0.00102
LDIDSPPITAR	0.00107
ILQDGGLQVVEK	0.000978
VVDLLAPYAK	0.000767
TFFSFPAVVAPFK	0.000546
GLTPSQIGVILR	0.00062
MGANSLER	0.00212
LVQGSILK	0.000721
GDEEGVPAVVIDMSGLR	0.00109
LGFAGLVQEISFGTTK	0.001
IEDLSQQAQLAAAEK	0.0009
EQGVLSFWR	0.00106
RVHPVSTMIK	0.00129
LGGSAVISLEGKPL	0.000716
EANNFLWPFK	0.000958
NNQFQALLQYADPVSAQHAK	0.000863
DNLTLWTSDMQGDGEEQNK	0.00177
DYFLFR	0.00105
LFVGGLK	0.000811
YPSPFFVFGEK	0.000978

Substance	observed amide hydrogen exchange rate constant kobs
ALENDPDCR	0.00109
LAMQEFMILPVGAANFR	0.000775
LVQDVANNTNEEAGDGTTTATVLAR	0.00155
PYVEEGLHPQIIIR	0.000843
SIYYITGESK	0.00108
EFHLNESGDPSSK	0.00132
DIFQEIFDK	0.00131
SADTLWGIQK	0.000987
VTVITK	0.000489
QLFHPEQLITGK	0.00131
EFEPLLNWMK	0.000734
EITALAPSTMK	0.000944
AGAHLQGGAK	0.00372
ALTVPELTQQVFDAK	0.000761
VALVYGQMNEPPGAR	0.00112
IRYESLTDPSK	0.00212
EKPYFPIPEEYTFIQNVPLEDR	0.000754
HFVALSTNTTK	0.00117
SVVLMSHLGRPDGVPMPDK	0.00138
VLATVTKPVGGDK	0.000932
LWDLTTGTTTR	0.00172
NDLAVVDVR	0.000939
VFSGLVSTGLK	0.00112
GGSDGYGSGR	0.00404
NPDDITNEEYGEFYK	0.00176

Substance	observed amide hydrogen exchange rate constant kobs
LLLPWLEAR	0.00056
VELFFK	0.000868
GEMMDLQHGSLFLR	0.00161
EVDEQMLNVQNK	0.00132
GCITIIGGGDTATCCAK	0.00119
RFDDAVVQSDMK	0.00151
RGILTLK	0.000691
AVFVDLEPTVIDEVR	0.000889
SINPDEAVAYGAAVQAAILSGDK	0.000731
QSKPVTTPEEIAQVATISANGDK	0.000917
GFGFVLFK	0.000656
IGAEVYHNLK	0.0019
ARFEELNADLFR	0.00175
HWPFMVVNDAGRPK	0.00131
AMGIMNSFVNDIFER	0.00109
AIPQLQGYLR	0.00091
LMIEMDGTENK	0.00222
LYQSAGGMPGGMPGGFPGGGAPPSGGASSGPTIEEVD	0.00113
EQFLDGDGWTSR	0.00231
RLNINAAK	0.000596
IEVIEIMTDR	0.00104
MTDQEAIQDLWQWR	0.000842
LVQAFQFTDK	0.00109
VPSLVGSFIR	0.000779
TLGILGLGR	0.00116

Substance	observed amide hydrogen exchange rate constant kobs
KSDVEAIFSK	0.000898
VIHDNFGIVEGLMTTVHAITATQK	0.00116
YLTVAAVFR	0.000527
LVILANNCPALR	0.00112
WTGMIIGPPR	0.000901
IIDVVYNASNNELVR	0.00138
MVNHFIAEFK	0.00114
VELLLK	0.000604
LNLVQR	0.000854
YTPSGQAGAAASESLFVSNHAY	0.00149
TLSDYNIQK	0.00134
VDNDENEHQLSLR	0.00288
FLVYVANFDEK	0.000821
ELLPEIR	0.0016
ILATPPQEDAPSVDIANIR	0.00103
EISLWFKPEELVDYK	0.000892
SVTEQGAELSNEER	0.00228
LGIHEDSTNR	0.00441
VLDFEHFLPMLQTVAK	0.000855
HLQLAIRNDEELNK	0.00184
CAADLGLNK	0.00234
FVSISDLLVPK	0.000665
